# Measured values taken from publication PMC3822574 (Analytical biochemistry, 2013).
# Target: T1, LCAT (Homo sapiens, UniProt P04180)
# T1 sequence (P04180 25-440): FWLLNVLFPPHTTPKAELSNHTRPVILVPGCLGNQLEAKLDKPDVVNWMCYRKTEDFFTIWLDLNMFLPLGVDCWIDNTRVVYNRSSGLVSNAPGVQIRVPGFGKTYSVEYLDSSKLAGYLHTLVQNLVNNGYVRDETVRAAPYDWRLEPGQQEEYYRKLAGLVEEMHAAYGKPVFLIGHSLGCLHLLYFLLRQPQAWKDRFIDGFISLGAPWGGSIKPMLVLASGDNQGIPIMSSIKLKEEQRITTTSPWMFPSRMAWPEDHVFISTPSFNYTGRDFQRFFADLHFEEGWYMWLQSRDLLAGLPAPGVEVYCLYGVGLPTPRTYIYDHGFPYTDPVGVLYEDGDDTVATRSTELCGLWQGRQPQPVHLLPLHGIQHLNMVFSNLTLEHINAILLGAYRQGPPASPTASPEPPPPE
# Assay: Assay of LCAT activity in plasma with HDL-mimetic substrate
# Format: biochemical
# Conditions: rhLCAT in buffer; 2 μL with 100 μL HMS (100 μM DHE), 2 hours
substance,measurement,value
rhLCAT: Recombinant human LCAT purified from the medium of a stably transfected HEK293F cell clone,Slope of activity versus rhLCAT concentration,5 nmol/µg/h
